Measurements reported in patent US20150322128A1 (Sanofi, published 2015).
Numbering of substitutions follows the chain as printed. Square brackets hold non-standard residues; d marks the D form. Ends that are not written are not given here. Aib = CC(C)(N)C(=O)O

T1: human GIP receptor (human, UniProt P48546 22-466)
T1 sequence (looked up): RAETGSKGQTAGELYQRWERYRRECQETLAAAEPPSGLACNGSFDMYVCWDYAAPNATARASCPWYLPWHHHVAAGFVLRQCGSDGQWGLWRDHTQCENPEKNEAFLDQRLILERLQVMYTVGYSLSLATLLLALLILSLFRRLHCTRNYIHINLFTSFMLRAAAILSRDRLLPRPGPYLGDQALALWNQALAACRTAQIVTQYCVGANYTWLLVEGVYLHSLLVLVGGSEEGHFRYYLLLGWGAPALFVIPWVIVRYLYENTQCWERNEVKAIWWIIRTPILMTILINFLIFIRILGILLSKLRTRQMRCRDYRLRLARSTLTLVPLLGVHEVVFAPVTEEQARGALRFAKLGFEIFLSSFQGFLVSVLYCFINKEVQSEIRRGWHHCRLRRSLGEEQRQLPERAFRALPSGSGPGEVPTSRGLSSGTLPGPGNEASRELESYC

B1: SEQ ID NO: 28 (peptide)
peptide: H[dS]QGTFTSDLSKQLDEEAARLFIEWL[Aib]AGGPSSGAPPPS-NH2
modifications: N-terminus assumed
SMILES: CC[C@H](C)[C@H](NC(=O)[C@H](Cc1ccccc1)NC(=O)[C@H](CC(C)C)NC(=O)[C@H](CCCNC(=N)N)NC(=O)[C@H](C)NC(=O)[C@H](C)NC(=O)[C@H](CCC(=O)O)NC(=O)[C@H](CCC(=O)O)NC(=O)[C@H](CC(=O)O)NC(=O)[C@H](CC(C)C)NC(=O)[C@H](CCC(N)=O)NC(=O)[C@H](CCCCN)NC(=O)[C@H](CO)NC(=O)[C@H](CC(C)C)NC(=O)[C@H](CC(=O)O)NC(=O)[C@H](CO)NC(=O)[C@@H](NC(=O)[C@H](Cc1ccccc1)NC(=O)[C@@H](NC(=O)CNC(=O)[C@H](CCC(N)=O)NC(=O)[C@@H](CO)NC(=O)[C@@H](N)Cc1c[nH]cn1)[C@@H](C)O)[C@@H](C)O)C(=O)N[C@@H](CCC(=O)O)C(=O)N[C@@H](Cc1c[nH]c2ccccc12)C(=O)N[C@@H](CC(C)C)C(=O)NC(C)(C)C(=O)N[C@@H](C)C(=O)NCC(=O)NCC(=O)N1CCC[C@H]1C(=O)N[C@@H](CO)C(=O)N[C@@H](CO)C(=O)NCC(=O)N[C@@H](C)C(=O)N1CCC[C@H]1C(=O)N1CCC[C@H]1C(=O)N1CCC[C@H]1C(=O)N[C@@H](CO)C(N)=O
B2: SEQ ID NO: 32 (peptide)
peptide: HXQGTFTSDLSKQKDEEAARLFIEWLKAGGPSSGAPPPS
modifications: D-Ser at 2; Lys 14 side chain K(γE-γE-x53) = (S)-4-Carboxy-4-((S)-4-carboxy-4-hexadecanoylamino-butyrylamino)-butyryl-; C-terminal amide
B3: SEQ ID NO: 14 (peptide)
peptide: B2 peptide with K27X
modifications: D-Ser at 2; Lys 14 side chain K(γE-x53) = (S)-4-Carboxy-4-hexadecanoylamino-butyryl-; Aib at 27; C-terminal amide
B4: SEQ ID NO: 13 (peptide)
peptide: B2 peptide with K27X
modifications: D-Ser at 2; Lys 14 side chain K(γE-x70) = (S)-4-Carboxy-4-octadecanoylamino-butyryl-; Aib at 27; C-terminal amide
B5: SEQ ID NO: 9 (peptide)
peptide: B2 peptide with K27X
modifications: D-Ser at 2; Lys 14 side chain K(γE-γE-x53) = (S)-4-Carboxy-4-((S)-4-carboxy-4-hexadecanoylamino-butyrylamino)-butyryl-; Aib at 27; C-terminal amide

Target: T2, human glucagon receptor (human, UniProt P47871 26-477)
Test: cell-based or functional assay

T2 sequence (P47871 26-477): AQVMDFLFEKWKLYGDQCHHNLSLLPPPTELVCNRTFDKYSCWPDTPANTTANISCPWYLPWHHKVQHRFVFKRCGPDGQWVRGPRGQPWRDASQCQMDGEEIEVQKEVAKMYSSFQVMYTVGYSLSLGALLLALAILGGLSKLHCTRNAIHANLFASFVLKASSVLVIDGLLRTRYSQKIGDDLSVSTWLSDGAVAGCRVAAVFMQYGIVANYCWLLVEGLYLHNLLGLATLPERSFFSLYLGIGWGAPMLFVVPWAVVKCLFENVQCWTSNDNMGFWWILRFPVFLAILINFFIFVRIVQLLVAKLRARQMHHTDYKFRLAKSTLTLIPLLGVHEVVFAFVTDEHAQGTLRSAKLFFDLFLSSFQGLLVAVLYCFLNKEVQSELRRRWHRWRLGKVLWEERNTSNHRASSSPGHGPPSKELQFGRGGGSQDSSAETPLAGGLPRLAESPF

Row | Binder | EC50 hGlucagon-R
1 | B1 | 1040 pM
2 | B2 | 5.5 pM
3 | B3 | 24.7 pM
4 | B4 | 6.8 pM
5 | B5 | 11.8 pM
6 | H[dS]QGTFTSDLSKQLDEEAARLFIEWLKAGGPSSGAPPPS-NH2 [SEQ ID NO: 34] | 338 pM

Target: T1, human GIP receptor
Test: cell-based or functional assay

Row | Binder | EC50 hGIP-1
7 | B1 | 343000 pM
8 | B2 | 565 pM
9 | B3 | 5360 pM
10 | B4 | 2540 pM
11 | B5 | 3600 pM
12 | H[dS]QGTFTSDLSKQLDEEAARLFIEWLKAGGPSSGAPPPS-NH2 [SEQ ID NO: 34] | 26000 pM

Target: T3, human GLP-1 receptor (human, UniProt P43220 24-463)
Test: cell-based or functional assay

Row | Binder | EC50 hGLP-1R
13 | B1 | 3.8 pM
14 | B2 | 1.9 pM
15 | B3 | 2.1 pM
16 | B4 | 2.7 pM
17 | B5 | 1.8 pM
18 | H[dS]QGTFTSDLSKQLDEEAARLFIEWLKAGGPSSGAPPPS-NH2 [SEQ ID NO: 34] | 0.8 pM

Target: T2, human glucagon receptor
Test: cell-based or functional assay
Remark: another data set of the same source

Row | Binder | EC50 hGlucagon-R
19 | B3 | 24.7 pM
20 | B4 | 6.8 pM
21 | B5 | 11.8 pM

Target: T1, human GIP receptor
Test: cell-based or functional assay
Remark: another data set of the same source

Row | Binder | EC50 hGIP-R
22 | B3 | 5360 pM
23 | B4 | 2540 pM
24 | B5 | 3600 pM

Target: T3, human GLP-1 receptor
Test: cell-based or functional assay
Remark: another data set of the same source

Row | Binder | EC50 hGLP-1R
25 | B3 | 2.1 pM
26 | B4 | 2.7 pM
27 | B5 | 1.8 pM

Target: T2, human glucagon receptor
Test: cell-based or functional assay
Remark: another data set of the same source

Row | Binder | EC50 hGlucagon-R
28 | B2 | 5.5 pM
29 | B5 | 11.8 pM

Target: T1, human GIP receptor
Test: cell-based or functional assay
Remark: another data set of the same source

Row | Binder | EC50 hGIP-1
30 | B2 | 565 pM
31 | B5 | 3600 pM

Target: T3, human GLP-1 receptor
Test: cell-based or functional assay
Remark: another data set of the same source

Row | Binder | EC50 hGLP-1R
32 | B2 | 1.9 pM
33 | B5 | 1.8 pM
